# Experimental data from US20190338038A1 (CELLERANT THERAPEUTICS, published 2019).
# Changes are numbered by the printed parent chain. Where two headings read alike, the source gives them in different places.
# T1: recombinant mouse IL1-RAP (mouse, UniProt Q61730 21-359, limits assumed)
# T1 sequence (looked up): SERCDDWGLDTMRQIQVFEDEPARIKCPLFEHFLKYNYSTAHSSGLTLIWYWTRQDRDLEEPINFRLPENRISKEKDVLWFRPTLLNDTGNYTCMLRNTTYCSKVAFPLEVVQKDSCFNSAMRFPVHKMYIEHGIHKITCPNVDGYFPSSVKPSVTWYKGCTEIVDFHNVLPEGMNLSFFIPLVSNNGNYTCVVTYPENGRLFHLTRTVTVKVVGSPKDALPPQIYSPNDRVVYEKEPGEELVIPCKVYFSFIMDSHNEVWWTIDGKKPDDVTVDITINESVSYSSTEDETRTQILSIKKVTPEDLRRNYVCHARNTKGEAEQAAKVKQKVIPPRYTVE
# T2: human interleukin 1 receptor accessory protein, membrane-bound form on cells (human, UniProt Q9NPH3 21-570)
# T2 sequence: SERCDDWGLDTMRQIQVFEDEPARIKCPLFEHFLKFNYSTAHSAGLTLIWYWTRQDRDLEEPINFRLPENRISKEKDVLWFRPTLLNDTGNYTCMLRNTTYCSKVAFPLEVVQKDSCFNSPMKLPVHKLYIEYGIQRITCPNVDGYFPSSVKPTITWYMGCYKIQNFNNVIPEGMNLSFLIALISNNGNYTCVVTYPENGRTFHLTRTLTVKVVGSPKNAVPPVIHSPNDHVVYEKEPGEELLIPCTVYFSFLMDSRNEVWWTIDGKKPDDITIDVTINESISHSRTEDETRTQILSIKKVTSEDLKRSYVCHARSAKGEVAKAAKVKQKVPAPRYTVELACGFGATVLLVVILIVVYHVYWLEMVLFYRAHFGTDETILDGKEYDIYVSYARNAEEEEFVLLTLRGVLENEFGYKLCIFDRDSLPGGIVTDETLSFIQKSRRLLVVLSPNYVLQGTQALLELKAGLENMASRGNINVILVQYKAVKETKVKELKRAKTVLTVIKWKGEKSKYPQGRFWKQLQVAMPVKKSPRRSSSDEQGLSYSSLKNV
# T3: IL1-RAP (antigen of the kinetic measurements of Tables 5A and 5B) (human, UniProt Q9NPH3 21-359, limits assumed)
# T3 sequence: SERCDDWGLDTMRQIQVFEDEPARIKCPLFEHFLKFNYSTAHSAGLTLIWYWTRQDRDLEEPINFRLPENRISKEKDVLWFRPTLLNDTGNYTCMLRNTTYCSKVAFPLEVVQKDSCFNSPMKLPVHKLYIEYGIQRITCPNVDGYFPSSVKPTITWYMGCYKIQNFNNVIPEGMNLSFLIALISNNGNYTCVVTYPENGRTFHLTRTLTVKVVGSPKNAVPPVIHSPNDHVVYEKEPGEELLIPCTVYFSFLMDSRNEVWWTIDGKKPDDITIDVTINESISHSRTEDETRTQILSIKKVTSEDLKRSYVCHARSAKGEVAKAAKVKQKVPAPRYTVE
# B1: anti-IL1-RAP antibody clone 54.9D7 (antibody, V domains shown)
# VH: HVQLQQSGPELVRPGASVKLSCKASGYIFITYWMNWVKQRPGQGLEWVGQIFPASGTTYYNELFEGKATLTVDTSSNTAYMHLTSLTSEDSAVYYCARTDFYRYDGGYALDYWGQGTSLTVSS
# VL: DIVLTQSPISLAVFLGQRATISCRASQSVSTSGYSSMHWYQQKAGQPPKLLIKYASDLESGVPVRFSGSGSGTDFILNIHPVEVEDIATYYCHHSWGIPMYTFGGGTKLEIKR
# notes: Mouse monoclonal antibody from a hybridoma
# B2: H54.9D7 HC3 / H54.9D7 LC1 (antibody, V domains shown)
# VH: QVQLVQSGAEVKKPGASVKLSCKASGYIFITYWMNWVRQAPGQGLEWVGQIFPASGTTYYAQKFQGRATLTVDTSTSTAYMELSSLRSEDTAVYYCARTDFYRYDGGYALDYWGQGTLLTVSS
# VL: DIQMTQSPSSLSASVGDRVTITCRASQSVSTSGYSSMHWYQQKPGKAPKLLIYYASDLESGVPSRFSGSGSGTDFTLTISSLQPEDFATYYCHHSWGIPMYTFGQGTKLEIKR
# B3: h54.9D7 HC3 / h54.9D7 LC2 (antibody, V domains shown)
# VH: B2 VH
# VL: B2 VL with M4L, V19A, L82V
# B4: Chi54.9D7 HC#1 / h54.9D7 LC3 (antibody, V domains shown)
# VH: B1 VH
# VL: B2 VL with M4L, V19A, Y53K, L82V
# notes: also called chimeric 54.9D7 heavy chain with humanized LC3
# B5: Chi54.9D7 HC#1 / h54.9D7 LC1 (antibody, V domains shown)
# VH: B1 VH
# VL: B2 VL
# B6: humanized clone of 54.9D7 hH2L3 (antibody, V domains shown)
# VH: B2 VH with L20V, A68V, L70M, A79V, L119V
# VL: B2 VL with M4L, V19A, Y53K, L82V
# notes: Humanized; also called 54.9D7 H2L3
# B7: Chi54.9D7 HC#1 / h54.9D7 LC2 (antibody, V domains shown)
# VH: B1 VH
# VL: B2 VL with M4L, V19A, L82V
# B8: h54.9D7 HC2 / Chi54.9D7 LC#1 (antibody, V domains shown)
# VH: B2 VH with L20V, A68V, L70M, A79V, L119V
# VL: B1 VL
# notes: also called humanized 54.9D7 HC2 with the chimeric light chain
# B9: humanized clone of 54.9D7 hH3L3 (antibody, V domains shown)
# VH: B2 VH
# VL: B2 VL with M4L, V19A, Y53K, L82V
# notes: Humanized; also called 54.9D7 H3L3
# B10: h54.9D7 HC3 / Chi54.9D7 LC#1 (antibody, V domains shown)
# VH: B2 VH
# VL: B1 VL
# notes: also called humanized 54.9D7 HC3 with the chimeric light chain
# B11: humanized clone of 54.9D7 hH1L3 (antibody, V domains shown)
# VH: B2 VH with L20V, V48M, A68V, L70M, V72R, A79V, L119V
# VL: B2 VL with M4L, V19A, Y53K, L82V
# notes: Humanized; also called 54.9D7 H1L3
# B12: h54.9D7 HC1 / Chi54.9D7 LC#1 (antibody, V domains shown)
# VH: B2 VH with L20V, V48M, A68V, L70M, V72R, A79V, L119V
# VL: B1 VL
# notes: also called humanized 54.9D7 HC1 with the chimeric light chain
# B13: anti-IL1-RAP antibody clone 56.12G6 (antibody, V domains shown)
# VH: RSNYSSLGAELVKPGASVTLSCEASGYTFTSYWIHWVKQRPGQGLEWIGEINPSHGHTTYNEKFKNKATLTVDKSSSTAYMQVSSLTSEDSAVYYCTRHYGSYYFDLWGQGTTLTVSS
# VL: QIVLTQSPAIMSAFPGEKVTMTCRASSSVSYMHWYRQKSGTFPKRWIYDTSKLASGVPARFSGSGSGTSYSLTISSMEAEDAATYYCQQWSTNPITFGAGTKLELK
# notes: Mouse monoclonal antibody
# Key:
# [1] = target: human interleukin 1 receptor accessory protein, membrane-bound form on cells (human) (UniProt Q9NPH3); assay: flow cytometry on primary AML sample 13-AML-02 PB, antibody at 2 ug/mL per paragraph 390
# [2] = target: T1, recombinant mouse IL1-RAP; assay: FACS (GeoMean), bar series mIL1RAP
# [3] = target: T2, human interleukin 1 receptor accessory …; assay: cell-based or functional assay
# [4] = target: T2, human interleukin 1 receptor accessory …; assay: cell-based or functional assay; remark: listed apart in the source
# [5] = target: human interleukin 1 receptor accessory protein, membrane-bound form on cells (human) (UniProt Q9NPH3); assay: FACS on EOL-1 cells, FITC; antibody concentration not given
# [6] = target: T2, human interleukin 1 receptor accessory …; assay: as above
# [7] = target: T3, IL1-RAP (antigen of the kinetic …); assay: kinetics, Table 5B; method and antigen form not stated
# [8] = target: T3, IL1-RAP (antigen of the kinetic …); assay: kinetics, Table 5A; method and antigen form not stated
# [9] = target: T2, human interleukin 1 receptor accessory …; assay: FACS titration on IL1-RAP transfected 293 cells
# [10] = target: T2, human interleukin 1 receptor accessory …; assay: FACS titration on EOL-1 cells
# [11] = target: T2, human interleukin 1 receptor accessory …; assay: FACS titration on HNT-34 cells in PBS, no competitor
# [12] = target: T2, human interleukin 1 receptor accessory …; assay: FACS titration on HNT-34 cells
molecule,measurement,setting,value
mIgG (antibody),"% of cells in the upper right quadrant (CD34 APC high, stain positive)",[1],1.57%
B1,binding result,[2],no binding (tested: not given)
same,"% Inhibition at 10 ug/mL of IL-1β-induced NF-κB signaling, HEK-Blue IL-1β cells",[3],92.3%
same,"IC50 of inhibition of IL-1β-induced NF-κB signaling, HEK-Blue IL-1β cells",[3],0.03 mg/L
same,"IC50 of inhibition of IL-1β-induced NF-κB signaling, HEK-Blue IL-1β cells",[4],0.0323 mg/L
B2,MFI,[5],4.86
B3,MFI,[5],5.49
B4,MFI,[6],121
B5,MFI,[5],7.96
B6,Kd,[7],< 0.001 nM
same,koff,[7],< 1e-07 s⁻¹
same,kon,[7],169000 M⁻¹ s⁻¹
same,Kd,[8],< 0.001 nM
same,koff,[8],< 1e-07 s⁻¹
same,kon,[8],141000 M⁻¹ s⁻¹
same,MFI,[6],124
B7,MFI,[5],7.8
B8,MFI,[6],75.1
B9,Kd,[7],< 0.001 nM
same,koff,[7],< 1e-07 s⁻¹
same,kon,[7],193000 M⁻¹ s⁻¹
same,Kd,[8],< 0.001 nM
same,koff,[8],< 1e-07 s⁻¹
same,kon,[8],177000 M⁻¹ s⁻¹
same,MFI,[6],94.3
B10,MFI,[6],20
B11,Kd,[7],0.229 nM
same,koff,[7],3.75e-05 s⁻¹
same,kon,[7],164000 M⁻¹ s⁻¹
same,Kd,[8],0.556 nM
same,koff,[8],7.57e-05 s⁻¹
same,kon,[8],136000 M⁻¹ s⁻¹
same,MFI,[6],100
B12,MFI,[6],21.3
B13,binding result,[2],no binding (tested: not given)
same,EC50 (read off the curve),[9],~0.4 mg/L
same,EC50 (read off the curve),[10],~0.6 mg/L
same,EC50 (read off the curve),[11],~0.9 mg/L
same,EC50 (read off the curve),[12],~0.2 mg/L
